T1: HOW-STAR (STAR domain of Held out wings) (Drosophila melanogaster, UniProt O01367 72-266)
T1 sequence: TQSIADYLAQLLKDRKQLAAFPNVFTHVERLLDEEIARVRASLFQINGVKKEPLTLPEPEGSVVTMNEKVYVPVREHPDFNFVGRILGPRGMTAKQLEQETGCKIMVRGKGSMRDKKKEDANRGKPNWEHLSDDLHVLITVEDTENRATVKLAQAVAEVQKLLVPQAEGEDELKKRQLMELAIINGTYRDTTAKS


molecular target: T1, HOW-STAR (STAR domain of Held out wings); test: fluorescence anisotropy; apparent KD; RNA binding buffer: 20 mM Tris-HCl pH 7.5, 150 mM NaCl, 0.01% Triton X-100; 20 uL of 5 nM labelled RNA in about 60 uL; at least 45 min equilibration; temperature not stated; details: protein: recombinant; tags: His6-GST removed by 3C protease; chain copies: 2; label: 3' 6-carboxyfluorescein

Row | Binder | Kd
1 | ACACACUAACUCGUAACUAUG (ssRNA) [Lola + half-site] | 9.25 nM
2 | AGCAACUAACAAUU (ssRNA) [Hipk-RA G5A] | 4.65 nM
3 | AGCAUCUAACAAUU (ssRNA) [Hipk-RA G5U] | 12.4 nM
4 | UACAACUAACAACUAACAGAU (ssRNA) [Hipk double motif] | 7.46 nM
5 | AGCAGCUGACAAUU (ssRNA) [Hipk-RA A8G] | 85.3 nM
6 | AGCACCUAACAAUU (ssRNA) [Hipk-RA G5C] | 20.4 nM
7 | AGCAGCUAACAAUU (ssRNA) [Hipk-RA] | 10.1 nM
8 | ACACACUAACUCGU (ssRNA) [Lola] | 6.05 nM

molecular target: T1, HOW-STAR (STAR domain of Held out wings); test: fluorescence anisotropy; apparent KD; text: did not bind in the low nanomolar range; RNA binding buffer: 20 mM Tris-HCl pH 7.5, 150 mM NaCl, 0.01% Triton X-100; 20 uL of 5 nM labelled RNA in about 60 uL; at least 45 min equilibration; temperature not stated; details: protein: recombinant; tags: His6-GST removed by 3C protease; chain copies: 2; label: 3' 6-carboxyfluorescein

Row | Binder | Kd
9 | GUUGGCGUGUUUU (ssRNA) [Jvl] | 803 nM
